Data published in patent US20190343926A1 (priority 2017, published 2019).

Legend:
[1] = 35 mU/kg IV every six minutes, ten bursts
[2] = cited from earlier work
[3] = 0.25 mU/kg/min continuous IV insulin infusion; cited from earlier work

## insulin
[1]
  burst at which steady state (Cmax and Cmin bands) is reached: fourth burst
[2]; 40 mU/kg IV insulin over 3 minutes, over about 30 minutes
  drop in glucose levels: almost half
[2]; 40 mU/kg IV over 3 minutes
  time for blood insulin to drop from 1000 to 500: ~3 min
[3]
  glucose decrease at steady state: about 25%
